How the values were obtained:
Wnt target genes = experiment: qPCR of Wnt target genes in duodenum of OMP-PN13-bearing mice; format: in vivo, NOD/SCID mice
Procedure: Frozen OMP-PN13 tumor cells that have been passaged twice in mice were obtained from Oncomed's tumor bank. They were thawed and injected subcutaneously into the left flank of NOD/SCID mice immediately following thawing. ˜ 25,000 viable cells were injected per animal. The mice were monitored weekly for tumor growth. After their onset, the size of the tumors was measured once weekly by caliper. 200-300 mm^3 tumor-bearing mice were dispatched in treatment groups that each contained 5 animals. […] Ab treatment was initiated the day after randomization. LZ1 was used as the negative control Ab. 3 doses of 10 mg/kg of Ab were administered via intra-peritoneal injection over a 12-day period. Mice were euthanized 24 hours after the last injection. Tumor, duodenum and liver were harvested.
Total RNAs were also extracted from tumor, duodenum and liver for Wnt target gene expression analyses using qPCR.
Tissues were immediately transferred into RNAlater (QIAGEN) at the time of harvest. RNA was extracted using the QIAGEN RNeasy for Fibrous Tissue mini kit according to the manufacturer instructions. […] All 5 tumors of each treatment group were analyzed. […] ABI SDS 2.2.1 software was used to analyze the data and calculate DeltaCt values that were converted into relative quantities. […] Fold inhibition factors were then calculated relative to control antibody (LZ1).

ACTA2 = ACTA2 gene expression in treated OMP-PN4 tumors by microarray; format: in vivo, NOD/SCID mice; details: 10 mg/kg once a week for 6 weeks; tumor stroma
Procedure: As described in Example 7 above, OMP-PN4 tumor-bearing NOD/SCID mice were treated with control Ab (LZ-1), 18R5, gemcitabine, or the combination of 18R5 and gemcitabine once a week for 6 weeks. The antibodies were administered at a concentration of 10 mg/kg. After they were harvested, the tumors from that experiment were analyzed for the expression of Wnt target genes at both the RNA and protein levels, using microarray and IHC, respectively.
Total RNA was extracted from the tumors, amplified, and subjected to microarray analysis. Total RNAs were amplified using the Ovation RNA Amplification System V2 (NuGEN, San Carlos, Calif.). Resulting amplified, antisense ss-cDNA was fragmented and biotinylated using the FL-Ovation cDNA Biotin Module V2 (NuGEN) for use on Affymetrix chips. Affymetrix HG-U133 plus 2 or MG 430 2.0 oligonucleotide microarrays were used in these experiments (performed at Almac Diagnostics, Durham, N.C.). […] The quality of the cDNA and the fragmented cDNA were assessed by spectrophotometer and the Bioanalyzer before the array hybridization. The scanned raw chip data were quantified and scaled using the GCOS software package (Affymetrix) and subjected to a comprehensive assessment of Gene Chip Quality Control recommended by Affymetrix to detect any chips defects and outliers, which were excluded from the subsequent data analysis. […]

PN13 tumors = experiment: Alcian blue and ki67 staining of treated PN13 tumor sections; format: in vivo, NOD/SCID mice; details: vs control antibody
Procedure: FIG. 43. Treatment with anti-FZD antibody 18R5 promotes differentiation of tumor cells into non-proliferative mucinous cells. NOD/SCID mice were injected with 50,000 OMP-PN13 pancreatic tumor cells and on day 23, mice with tumors of average volume of about 107 mm^3 were randomized, and treatment with control antibody or 18R5 was initiated four days later. After 20 days tumors were collected and sectioned. Tumor sections from 18R5 treated mice or control antibody treated mice were stained with alcian blue stain to reveal mucinous cells and by immunohistochemistry with antibody to ki67 to reveal proliferative cells. Exemplary mucinous cells and proliferative cells are highlighted by arrows.
Increased mucinous cells were also noted in a second pancreatic tumor line, PN13, following treatment with 18R5 […] (FIG. 43). In this experiment mice bearing PN13 tumors were treated as described above (Example 7). Tumors sections were stained with alcian blue to reveal mucinous cells and also stained by immunohistochemistry with an antibody to ki67 to reveal cells undergoing proliferation. […] Additionally, the frequency of ki67 positive cells was reduced by 18R5 treatment. […] This provides evidence that 18R5 treatment is promoting the differentiation of tumor cells into non-proliferative progeny.

FZD8 binding to Wnt3A = target: T1, FZD8 binding to Wnt3A (Homo sapiens, UniProt Q9H461); experiment: Blocking of FZD8-Fc binding to Wnt3A (protein A depletion, STF293 reporter readout); format: biochemical; details: co-incubation with FZD8-Fc and Wnt3A conditioned medium, 2 hrs at 4° C., protein A beads removed
T1 construct: amino acids 1-157 of FZD8 linked in-frame to human IgG1 Fc
T1 sequence (Q9H461 28-157): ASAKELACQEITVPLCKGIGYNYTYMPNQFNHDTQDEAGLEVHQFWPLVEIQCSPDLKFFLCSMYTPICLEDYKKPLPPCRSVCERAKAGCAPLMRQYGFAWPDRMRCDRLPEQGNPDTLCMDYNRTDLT
Procedure: To assess the ability of 18R8 to block the binding of FZD to Wnt, 2 μl of 1.32 μg/μl soluble FZD8-Fc containing the Fri domain (amino acids 1-157 of FZD8 linked in-frame to human IgG1 Fc) was added to culture medium to bind Wnt3A (added as 20 μl of Wnt3A conditioned medium) either alone or in the presence of the 18R8 IgG antibody (added as 4 μl of 3.71 μg/μl). The mixtures were incubated either alone or in the presence of Protein A sepharose beads (GE Healthcare products; 20 μl of 50% solution in PBS) for two hrs at 4° C. After the incubation, the protein A beads (and any proteins complexed to the protein A beads) in each sample were removed by spinning and the supernatant was assayed for ability to induce 8×TCF luciferase activity. The supernatant was added to STF293 cells, which stably express 8×TCF (eight copies of the TCF-binding domain upstream of a firefly luciferase reporter gene) to measure canonical Wnt signaling levels and which were cultured in DMEM supplemented with antibiotics and 10% FCS. Eighteen hours following treatment of the STF293 cells, luciferase levels were measured using a dual luciferase assay kit (Promega; Madison, Wis.).

Row | Molecule | duodenum Lgr5 (Wnt target genes; fold relative to control antibody LZ1, 3 doses of 10 mg/kg over 12 days) [x] | Wnt target gene in the duodenum (Wnt target genes; relative to LZ1) | ACTA2 expression (ACTA2) | alcian blue positive mucinous cells (PN13 tumors) | frequency of ki67 positive cells (PN13 tumors) | blocking of FZD8 binding to Wnt3A (FZD8 binding to Wnt3A)
1 | 18R5: human anti-FZD antibody; VH SEQ ID NO:10 (as 18R8), VL SEQ ID NO:14; binds FZD1, 2, 5, 7, 8 (antibody, V domains shown, 18R5/18R8 heavy chain variable region (VH); 18R5 light chain variable region (VL)) VH: EVQLVESGGGLVQPGGSLRLSCAASGFTFSHYTLSWVRQAPGKGLEWVSVISGDGSYTYYADSVKGRFTISSDNSKNTLYLQMNSLRAEDTAVYYCARNFIKYVFANWGQGTLVTVSS VL: DIELTQPPSVSVAPGQTARISCSGDNIGSFYVHWYQQKPGQAPVLVIYDKSNRPSGIPERFSGSNSGNTATLTISGTQAEDEADYYCQSYANTLSLVFGGGTKLTVLG | −2.6 | unaffected | decreased levels of ACTA2 expression | greatly increased numbers of alcian blue positive mucinous cells | reduced | –
2 | 18R8: human anti-FZD antibody from phage display; VH SEQ ID NO:10, VL SEQ ID NO:12; binds FZD1, 2, 5, 7, 8 (antibody, V domains shown, 18R5/18R8 heavy chain variable region (VH); 18R8 light chain variable region (VL)) VH: EVQLVESGGGLVQPGGSLRLSCAASGFTFSHYTLSWVRQAPGKGLEWVSVISGDGSYTYYADSVKGRFTISSDNSKNTLYLQMNSLRAEDTAVYYCARNFIKYVFANWGQGTLVTVSS VL: DIELTQPPSVSVAPGQTARISCSGDKLGKKYASWYQQKPGQAPVLVIYEKDNRPSGIPERFSGSNSGNTATLTISGTQAEDEADYYCSSFAGNSLEVFGGGTKLTVLG | – | – | – | – | – | blocked the ability of FZD8 to bind to Wnt3A

From patent US8975044B2, “Polynucleotides encoding for frizzled-binding agents and uses thereof” (OncoMed Pharmaceuticals, Inc., priority 2008, dated 2015)
